What was measured:
[1] = biological target: T1, CK1γ2 (h) (Homo sapiens, UniProt P78368); assay: Kinase Profiling Assay; assay type: biochemical; settings: 100 μM
T1 construct: purchased Millipore
Procedure, shortened: (§1)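 In this 266-kinase specificity panel, every measurement was duplicated. Transfer of labeled phosphate from ATP to a cationic substrate was quantified after the substrate adhered to an anionic filter membrane and was scintillation-counted, then related to a full-activity control.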

[2] = biological target: T2, c-RAF (h) (Homo sapiens, UniProt P04049); assay: Kinase Profiling Assay; assay type: biochemical; settings: 100 μM
T2 construct: purchased Millipore
Procedure, shortened: as §1

[3] = biological target: T3, PAK6 (h) (Homo sapiens, UniProt Q9NQU5); assay: Kinase Profiling Assay; assay type: biochemical; settings: 100 μM
T3 construct: purchased Millipore
T3 sequence (Q9NQU5 whole entry): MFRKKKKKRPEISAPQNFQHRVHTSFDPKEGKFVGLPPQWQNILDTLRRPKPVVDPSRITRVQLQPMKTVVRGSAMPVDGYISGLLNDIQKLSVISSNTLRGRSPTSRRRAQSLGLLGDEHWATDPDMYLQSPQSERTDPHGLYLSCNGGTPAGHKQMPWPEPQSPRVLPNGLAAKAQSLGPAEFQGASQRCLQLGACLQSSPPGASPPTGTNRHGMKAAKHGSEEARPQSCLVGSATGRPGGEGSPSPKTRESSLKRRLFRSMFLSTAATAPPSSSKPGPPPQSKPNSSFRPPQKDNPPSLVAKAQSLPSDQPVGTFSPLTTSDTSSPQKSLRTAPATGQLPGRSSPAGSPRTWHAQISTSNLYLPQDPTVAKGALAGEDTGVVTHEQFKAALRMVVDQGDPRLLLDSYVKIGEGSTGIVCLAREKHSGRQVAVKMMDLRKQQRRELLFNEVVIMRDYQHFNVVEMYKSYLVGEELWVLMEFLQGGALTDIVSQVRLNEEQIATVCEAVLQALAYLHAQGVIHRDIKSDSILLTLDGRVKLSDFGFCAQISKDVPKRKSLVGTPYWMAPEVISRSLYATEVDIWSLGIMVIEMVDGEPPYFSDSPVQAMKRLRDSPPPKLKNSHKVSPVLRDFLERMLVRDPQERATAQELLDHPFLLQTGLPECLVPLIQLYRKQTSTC
Procedure, shortened: as §1

[4] = tested on: bleomycin-induced lung fibrosis; assay: Bleomycin mouse model of pulmonary fibrosis (prevention model); assay type: in vivo, C57BL/6 mice; settings: 25, 50 or 75 μg/kg daily IP, day 7 through day 21
Method: A mouse model of pulmonary fibrosis was generated by administering 0.025 U of bleomycin/PBS intratracheally to C57BL/6 mice. […] At 21 day post bleomycin delivery (for prevention model) or 28 post bleomycin delivery (for treatment model), groups of mice were sacrificed with a sodium pentobarbital injection (120 mg/kg) and the chest cavity was opened. The right mainstem bronchus was ligated and the right lung was removed. The trachea was cannulated and the left lung was perfused with 4% formaldehyde at 21 cm H2O pressure. The tissue blocks then were embedded in paraffin, and […] sections were prepared for staining. Sections from each animal were stained with hematoxylin and eosin (H&E) to visualize cells or with Masson's Trichrome staining to highlight collagen deposition. […] Stained sections were mounted onto a labeled glass slide with organic mounting medium.
Briefly, fibrotic loci in the lungs of the mice were induced by delivering intratracheally about 0.025 U of bleomycin (dissolved in PBS) to C57BL/6 mice. […] Briefly, mice were sacrificed with a sodium pentobarbital injection (120 mg/kg) and the chest cavity was opened. The right mainstem bronchus was ligated and the right lung was removed. The trachea was cannulated and the left lung was perfused with 4% formaldehyde at 21 cm H2O pressure. The tissue blocks then were embedded in paraffin, and […] sections were prepared, and stained with hematoxylin and eosin (H&E; for pathological examination) or Masson's Trichrome (for collagen staining)
Next, total collagen levels in the lungs of the bleomycin-injured mice (FIG. 12) were analyzed quantitatively by computing a constant conversion factor (7.5) for collagen from hydroxyproline concentrations (Neuman R. and Logan M, J Biol Chem., 186(2):549-56, 1950, incorporated by reference).
Next, the effect of increasing doses of MK2 peptide inhibitors on collagen deposition was examined in vivo using the bleomycin mouse model of idiopathic pulmonary fibrosis (prevention model). Briefly, C57-BL/6 mice were subjected to bleomycin injury at day 0.

[5] = biological target: T4, CK1γ1 (h) (Homo sapiens, UniProt Q9HCP0); assay: Kinase Profiling Assay; assay type: biochemical; settings: 100 μM
T4 construct: purchased Millipore
T4 sequence (Q9HCP0 whole entry): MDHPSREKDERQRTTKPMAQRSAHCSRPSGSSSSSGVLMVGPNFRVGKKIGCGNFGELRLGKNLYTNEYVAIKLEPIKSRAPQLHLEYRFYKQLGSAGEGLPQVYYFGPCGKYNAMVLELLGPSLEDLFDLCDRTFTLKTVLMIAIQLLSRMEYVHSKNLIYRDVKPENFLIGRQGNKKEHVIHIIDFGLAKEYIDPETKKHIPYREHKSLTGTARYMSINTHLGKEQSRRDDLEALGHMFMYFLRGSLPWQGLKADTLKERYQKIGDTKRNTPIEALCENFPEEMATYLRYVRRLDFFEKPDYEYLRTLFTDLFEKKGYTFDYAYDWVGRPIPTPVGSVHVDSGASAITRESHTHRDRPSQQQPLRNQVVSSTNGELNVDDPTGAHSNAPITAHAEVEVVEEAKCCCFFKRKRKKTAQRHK
Procedure, shortened: as §1

[6] = biological target: T5, CLK2 (h) (Homo sapiens, UniProt P49760); assay: Kinase Profiling Assay; assay type: biochemical; settings: 100 μM
T5 construct: purchased Millipore
T5 sequence (P49760 whole entry): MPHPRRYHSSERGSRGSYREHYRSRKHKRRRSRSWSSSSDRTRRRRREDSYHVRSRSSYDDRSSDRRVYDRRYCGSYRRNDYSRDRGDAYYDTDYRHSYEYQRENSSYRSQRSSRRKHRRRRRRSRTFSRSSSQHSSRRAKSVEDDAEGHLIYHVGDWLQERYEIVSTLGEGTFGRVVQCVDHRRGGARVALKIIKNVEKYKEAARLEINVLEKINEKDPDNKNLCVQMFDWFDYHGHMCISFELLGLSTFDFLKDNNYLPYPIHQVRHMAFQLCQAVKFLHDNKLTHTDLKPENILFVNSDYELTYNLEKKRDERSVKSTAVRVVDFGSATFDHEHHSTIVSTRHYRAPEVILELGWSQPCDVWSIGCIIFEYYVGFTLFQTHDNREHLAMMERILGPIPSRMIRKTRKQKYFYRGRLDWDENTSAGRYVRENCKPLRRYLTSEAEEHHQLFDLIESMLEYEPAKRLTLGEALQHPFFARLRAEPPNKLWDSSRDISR
Procedure, shortened: as §1

[7] = biological target: Plk1 (h) (Homo sapiens, UniProt P53350); assay: Kinase Profiling Assay; assay type: biochemical; settings: 100 μM
Sequence of Plk1 (h) (P53350 whole entry): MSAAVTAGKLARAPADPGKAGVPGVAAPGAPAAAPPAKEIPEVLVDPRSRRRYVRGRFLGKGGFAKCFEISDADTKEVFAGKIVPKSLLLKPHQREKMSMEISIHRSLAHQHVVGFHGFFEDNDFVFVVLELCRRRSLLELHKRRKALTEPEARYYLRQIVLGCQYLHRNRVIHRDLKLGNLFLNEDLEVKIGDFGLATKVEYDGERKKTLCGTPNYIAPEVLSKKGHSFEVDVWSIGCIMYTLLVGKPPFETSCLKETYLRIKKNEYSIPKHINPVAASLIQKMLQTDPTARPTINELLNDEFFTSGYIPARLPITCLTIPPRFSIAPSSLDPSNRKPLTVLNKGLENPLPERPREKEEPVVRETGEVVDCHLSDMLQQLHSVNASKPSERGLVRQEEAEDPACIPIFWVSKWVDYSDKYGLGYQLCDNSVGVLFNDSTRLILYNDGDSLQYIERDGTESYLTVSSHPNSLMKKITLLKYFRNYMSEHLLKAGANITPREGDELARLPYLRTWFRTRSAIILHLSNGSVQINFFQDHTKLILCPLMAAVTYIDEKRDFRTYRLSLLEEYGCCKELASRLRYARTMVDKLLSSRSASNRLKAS
Procedure, shortened: as §1

[8] = tested on: human fetal lung fibroblasts (IMR-90), α-SMA; assay: TGF-β-induced myofibroblast activation, α-SMA immunoblot; assay type: cell-based; settings: 1 h pre-treatment, then TGF-β1 (2 ng/ml) 48 h
Excerpt: Cell lysates were immunoblotted against antibodies for α-SMA (a marker for myofibroblast activation) and GAPDH (loading control).

[9] = tested on: human fetal lung fibroblasts (IMR-90), fibronectin; assay: TGF-β-mediated fibronectin expression; assay type: cell-based; settings: 1 h pre-treatment, then TGF-β1 (2 ng/ml) 72 h
Method: Fibronection was measured as secreted fragments in the conditioned media. Equal amounts (14 μg) of total proteins from the conditioned media were loaded in each lane.

T1 sequence (P78368 whole entry): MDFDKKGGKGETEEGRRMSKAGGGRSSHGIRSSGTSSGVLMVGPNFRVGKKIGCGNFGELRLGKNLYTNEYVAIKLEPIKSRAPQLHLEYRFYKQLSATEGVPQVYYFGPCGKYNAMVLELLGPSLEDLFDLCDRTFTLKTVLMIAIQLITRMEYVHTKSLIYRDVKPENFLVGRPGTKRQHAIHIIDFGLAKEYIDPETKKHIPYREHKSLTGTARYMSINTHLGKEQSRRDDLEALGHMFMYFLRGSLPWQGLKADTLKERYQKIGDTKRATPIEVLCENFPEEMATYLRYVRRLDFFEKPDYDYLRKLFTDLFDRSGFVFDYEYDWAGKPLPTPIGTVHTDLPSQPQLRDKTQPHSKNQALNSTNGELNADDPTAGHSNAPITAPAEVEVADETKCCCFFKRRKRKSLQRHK

FAKLAARLYRKALARQLGVAA [MMI-0300]
% activity [1]: 123%

HRRIKAWLKKIKALARQLGVAA (Mammalian) [MMI-0500]
% activity [2]: 19%

KAFAKLAARLYRKALARQLGVAA [MMI-0400]
% activity [3]: 100%

YARAAARQARAKALNRQLGVA (Mammalian) [MMI-0200]
collagen levels in the lung (Masson's blue trichrome staining), dose response [4]: did not reduce, but rather increased the collagen deposition
% activity [5]: 98%
% activity [6]: 97%
% activity [7]: 128%
protein level of α-smooth muscle actin (α-SMA) [8]: no changes in the protein level
protein level of fibronectin (secreted fragments in conditioned media) [9]: no changes in the protein level

— US10500249B2, “Compositions and methods for preventing or treating diseases, conditions, or processes characterized by aberrant fibroblast proliferation and extracellular matrix deposition” (MOERAE MATRIX, INC., priority 2014, dated 2019)
